Each block holds one binder with its values, some of them ahead of it.
Columns and labels:
GST-cortactin SH3 domain = GST-cortactin SH3 domain (UniProt Q14247 492-550); assay: pull-down
GST-Src SH3 domain = GST-Src SH3 domain (UniProt P12931 84-145); assay: pull-down

Chain of GST-cortactin SH3 domain (Q14247 492-550): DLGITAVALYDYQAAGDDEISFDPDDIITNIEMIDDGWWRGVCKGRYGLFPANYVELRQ

fold increase in the ratio pulled down over GST control (GST-cortactin SH3 domain): ~9 fold
B1: GFP-AFAP1L1 (Actin Filament Associated Protein 1 Like 1) (natural protein, human, UniProt Q8TED9 1-768, looked up)
chain: MDRGQVLEQLLPELTGLLSLLDHEYLSDTTLEKKMAVASILQSLQPLPAKEVSYLYVNTADLHSGPSFVESLFEEFDCDLSDLRDMPEDDGEPSKGASPELAKSPRLRNAADLPPPLPNKPPPEDYYEEALPLGPGKSPEYISSHNGCSPSHSIVDGYYEDADSSYPATRVNGELKSSYNDSDAMSSSYESYDEEEEEGKSPQPRHQWPSEEASMHLVRECRICAFLLRKKRFGQWAKQLTVIREDQLLCYKSSKDRQPHLRLALDTCSIIYVPKDSRHKRHELRFTQGATEVLVLALQSREQAEEWLKVIREVSKPVGGAEGVEVPRSPVLLCKLDLDKRLSQEKQTSDSDSVGVGDNCSTLGRRETCDHGKGKKSSLAELKGSMSRAAGRKITRIIGFSKKKTLADDLQTSSTEEEVPCCGYLNVLVNQGWKERWCRLKCNTLYFHKDHMDLRTHVNAIALQGCEVAPGFGPRHPFAFRILRNRQEVAILEASCSEDMGRWLGLLLVEMGSRVTPEALHYDYVDVETLTSIVSAGRNSFLYARSCQNQWPEPRVYDDVPYEKMQDEEPERPTGAQVKRHASSCSEKSHRVDPQVKVKRHASSANQYKYGKNRAEEDARRYLVEKEKLEKEKETIRTELIALRQEKRELKEAIRSSPGAKLKALEEAVATLEAQCRAKEERRIDLELKLVAVKERLQQSLAGGPALGLSVSSKPKSGETANKPQNSVPEQPLPVNCVSELRKRSPSIVASNQGRVLQKAKEWEMKKT

fold increase in the ratio pulled down over GST control (GST-Src SH3 domain): 14 fold
B2: GFP-AFAP1 (Actin Filament-Associated Protein of 110 kDa) (natural protein, UniProt Q8N556 1-730, looked up)
chain: MEELIVELRLFLELLDHEYLTSTVREKKAVITNILLRIQSSKGFDVKDHAQKQETANSLPAPPQMPLPEIPQPWLPPDSGPPPLPTSSLPEGYYEEAVPLSPGKAPEYITSNYDSDAMSSSYESYDEEEEDGKGKKTRHQWPSEEASMDLVKDAKICAFLLRKKRFGQWTKLLCVIKDTKLLCYKSSKDQQPQMELPLQGCNITYIPKDSKKKKHELKITQQGTDPLVLAVQSKEQAEQWLKVIKEAYSGCSGPVDSECPPPPSSPVHKAELEKKLSSERPSSDGEGVVENGITTCNGKEQVKRKKSSKSEAKGTVSKVTGKKITKIISLGKKKPSTDEQTSSAEEDVPTCGYLNVLSNSRWRERWCRVKDNKLIFHKDRTDLKTHIVSIPLRGCEVIPGLDSKHPLTFRLLRNGQEVAVLEASSSEDMGRWIGILLAETGSSTDPEALHYDYIDVEMSASVIQTAKQTFCFMNRRVISANPYLGGTSNGYAHPSGTALHYDDVPCINGSLKGKKPPVASNGVTGKGKTLSSQPKKADPAAVVKRTGSNAAQYKYGKNRVEADAKRLQTKEEELLKRKEALRNRLAQLRKERKDLRAAIEVNAGRKPQAILEEKLKQLEEECRQKEAERVSLELELTEVKESLKKALAGGVTLGLAIEPKSGTSSPQSPVFRHRTLENSPISSCDTSDTEGPVPVNSAAVLKKSQAAPGSSPCRGHVLRKAKEWELKNGT

Reference: publication PMC3085893 (European journal of cell biology, 2011)
